Reference: patent publication US12286461B2, “Recombinant fused polypeptide and use thereof” (priority 2019, dated 2025)

Experiments:
[1] = test system: SD rats with bleomycin-induced pulmonary fibrosis; assay: Bleomycin-induced pulmonary fibrosis animal model; format: in vivo; details: for Survival rate (%): bleomycin 5 mg/kg intratracheal, dosage 10 mg/kg (Table 2), administration cycle 15 days from day 7 after modeling; for hydroxyproline (HYP) content in lung tissue / content of TGF-β1 in serum, difference from the model group: bleomycin pulmonary fibrosis, after 15 days; for hydroxyproline (HYP) content in lung tissue: 10 mg/kg s.c. once every five days, FIG. 1; for content of TGF-β1 in serum, difference from the model group: fused polypeptides 10 mg/kg s.c. once every five days, nintedanib 25 mg/kg intragastric once a day
Description: SD rats were anesthetized by intraperitoneal injection of 4% chloral hydrate with a concentration of 1 mL/100 g. After anesthesia, the rats were fixed and their necks were disinfected by using cotton with 75% alcohol. The skin of the rat neck was longitudinally cut with scissors, and the fascia and muscle were longitudinally bluntly torn with tweezers to expose the trachea. A syringe was inserted into the trachea to inject 5 mg/kg bleomycin, while a blank group was injected with an equal amount of normal saline. Then a rat plate was quickly erected and rotated, the rats' breathing was observed, the neck wound was sterilized after rotation and was sewn, and an amoxicillin anti-inflammatory drug was sprinkled on the suture. After the operation, the rats were put back into a dry and clean cage for resting, waiting for awakening. The rats were awakened after about 1-2 hours, and then fed normally. On the 7th day after modeling, modeling group animals randomly fell into a model group, a Nintedanib positive drug group, recombinant fused polypeptide 1, 2, 3 and 4 dosage groups, and a normal control group, and the groups were administered separately for an administration cycle of 15 days. Living situations of rats were observed every day and their weights were weighed. After administration for 15 days, the eyeballs were removed and blood was taken, the rats were dissected, and lungs were taken. The content of TGF-β1 in serum and the content of HYP in lung tissues were detected.

[2] = test system: SD rats with CCl4-induced hepatic fibrosis; assay: CCl4-induced hepatic fibrosis animal model; format: in vivo; details: 40% CCl4 i.p. twice a week for 8 weeks, fused polypeptides 6 mg/kg s.c. once every five days
Description: Modeling was performed on the rats. Each group other than the blank group was injected with 40% CCl4 intraperitoneally twice a week, the first injection was performed at 3 mL/kg, and then injection was performed at 2 mL/kg. Modeling was performed for 8 weeks to induce hepatic fibrosis. After the intraperitoneal injection of CCl4 for the fourth time, the drugs were administered according to Table 3. After induction for 8 weeks, the administration was stopped. The SD rats were dissected the next day, and blood was taken. The liver tissue was stored in a refrigerator at −80° C. for further use. The expression of HYP in the hepatic tissue of rats was detected. [table]

[3] = test system: SD rats with renal fibrosis; assay: Renal fibrosis animal model (ureter ligation); format: in vivo; details: 6 mg/kg s.c. once every five days, after 15 days
Description: A renal fibrosis animal model was established. SD rats were anesthetized with 4% chloral hydrate, injected with 1 mL/100 g intraperitoneally, fixed to an operation board, and sterilized in an operation area for further use. […] Muscular layers and abdominal walls were sewed layer by layer, the suture was disinfected with alcohol. After SD rats woke up, the rats were put into a cage for feeding. In the blank group, ureter was not ligated, and other steps were the same.
Then, the animals fell into a blank group, a model group, and recombinant fused polypeptide administration groups, and the administration was started on the second day after the operation, and was performed for 15 days. After administration for 15 days, blood was taken and supernatant was taken to detect the content of TGF-β1 in serum.

[4] = test system: mice with myocardial fibrosis; assay: Isoprenaline-induced myocardial fibrosis animal model; format: in vivo; details: BALB/c mice, isoprenaline 5 mg/kg s.c. daily for 7 days, 12 mg/kg s.c. (Table 5), after the 8th day, FIG. 5
Description: In the model group, the experimental mice were injected with isoprenaline (ISO) (5 mg/kg) subcutaneously on the back of the mice every day for 7 consecutive days, and the mice were injected with normal saline subcutaneously (200 μL/mouse) every day. In the blank group, normal saline was injected subcutaneously (200 μL/mouse) every day. […] After the 8th day, blood was taken and was centrifuged, the supernatant was taken, and the content of TGF-β1 in serum was detected.

[5] = test system: mice with bleomycin-induced skin fibrosis; assay: Bleomycin-induced skin fibrosis model; format: in vivo, C57/BL black mice; details: C57/BL mice, bleomycin 10 μg/mL s.c. daily for 28 days, 10 mg/kg s.c. once every five days, 6 times, FIG. 6
Description: Bleomycin (10 μg/mL) was injected subcutaneously every day for 28 days to form skin fibrosis. During the modeling period, the administration groups were given drugs for treatment. After modeling, the mice were killed on the next day, and the skin tissue of the mouse back was taken to detect the content of HYP in the skin tissue. [table]

Streptococcus pneumoniae = assay: Mouse pneumonia model, bacterial pneumonia; format: in vivo; details: BALB/C mouse pneumonia model, nasal drip; average ± standard deviation
Description: (§1) A mouse pneumonia model was successfully established by using a nasal drip method. BALB/C mice with a body weight of 18-24 g were selected, and then anesthetized with ether on day 0, day 1 and day 2, respectively, prepared Streptococcus pneumoniae bacteria solution, adenovirus concentrated solution, Mycoplasma pneumoniae, Chlamydia pneumoniae, protozoa and pneumonia fungi were slowly dropped into the nasal cavity of the mice, so that the bacteria solutions entered the trachea and bronchi, and the bacteria solutions were prevented from flowing into the esophagus during the operation to avoid inactivation of the bacteria solutions, so that the mouse pneumonia model was established. After the model was successfully established, the recombinant fused polypeptides according to the present invention were administered.

adenovirus = assay: Mouse pneumonia model, viral pneumonia; format: in vivo; details: BALB/C mouse pneumonia model, nasal drip; average ± standard deviation
Description: as §1

Mycoplasma pneumoniae = assay: Mouse pneumonia model, mycoplasma pneumonia; format: in vivo; details: BALB/C mouse pneumonia model, nasal drip; average ± standard deviation
Description: as §1

Chlamydia pneumoniae = assay: Mouse pneumonia model, chlamydia pneumonia; format: in vivo; details: BALB/C mouse pneumonia model, nasal drip; average ± standard deviation
Description: as §1

protozoa = assay: Mouse pneumonia model, protozoal pneumonia; format: in vivo; details: BALB/C mouse pneumonia model, nasal drip; average ± standard deviation
Description: as §1

pneumonia fungi = assay: Mouse pneumonia model, fungal pneumonia; format: in vivo; details: BALB/C mouse pneumonia model, nasal drip; average ± standard deviation
Description: as §1

pulmonary infections = assay: Mouse pneumonia model, pneumonia caused by pulmonary infections; format: in vivo, BALB/C mice; details: BALB/C mouse pneumonia model, nasal drip, average ± standard deviation
Description: as §1

[6] = listed as recombinant fused polypeptide II
[7] = listed as recombinant fused polypeptide III

B1: Acetyl-SDKPGGGGTSLDASIIWAMMQNGGGGLSKLGGGGSGGGGSGGGGSPRCWRGEGGGGIVRRADRAAVPGGGGRGD (protein)
chain: SDKPGGGGTSLDASIIWAMMQNGGGGLSKLGGGGSGGGGSGGGGSPRCWRGEGGGGIVRRADRAAVPGGGGRGD
modifications: N-acetyl
notes: Recombinant fused polypeptide Y-linker1-X expressed in 293 cells
**Q.** What does the source list for B1?
**A.** Survival rate (%) [1]: 85.7%; Survival rate (%) ([1]; listed as fused polypeptide 2): equivalent to that of the positive drug group; hydroxyproline (HYP) content in lung tissue [1]: can lower the hydroxyproline content; content of TGF-β1 in serum, difference from the model group ([1]; FIG. 2, listed as fused polypeptide 2): highly significant different from the model group (***P<0.001); content of TGF-β1 in serum, difference from the model group ([1]; FIG. 2, listed as recombinant fused polypeptide II): can lower the TGF-β1 content; content of HYP in liver tissue, difference from the model group ([2]; FIG. 3, listed as Recombinant fused polypeptide 2): highly significantly different from the model group (***P<0.001); content of HYP in liver tissue, difference from the model group ([2]; FIG. 3, listed as recombinant fused polypeptide II): can lower the HYP content; content of TGF-β1 in serum, difference from the model group ([3]; FIG. 4, listed as recombinant fused polypeptide 2, 6 mg/kg): highly significantly different from the model group (***P<0.001); content of TGF-β1 in serum, difference from the model group ([3]; FIG. 4, listed as recombinant fused polypeptide II, 6 mg/kg): can lower the TGF-β1 content; content of TGF-β1 in serum, difference from the model group ([4]; listed as recombinant fused polypeptide 2): highly significantly different from the model group (***P<0.001); content of TGF-β1 in serum, difference from the model group [4, 6]: can lower the TGF-β1 content; content of HYP in skin tissue, difference from the model group ([5]; listed as recombinant fused polypeptide 2, 10 mg/kg): highly significantly different from the model group (***P<0.001); content of HYP in skin tissue, difference from the model group ([5]; listed as recombinant fused polypeptide II, 10 mg/kg): can lower the hydroxyproline content; Inhibitory effect, Bacterial pneumonia (Streptococcus pneumoniae): 49.18 ± 5.32; Inhibitory effect, Viral pneumonia (adenovirus): 58.08 ± 5.27; Inhibitory effect, Mycoplasma pneumonia (Mycoplasma pneumoniae): 45.72 ± 5.69; Inhibitory effect, Chlamydia pneumonia (Chlamydia pneumoniae): 50.21 ± 4.85; Inhibitory effect, Protozoal pneumonia (protozoa): 66.13 ± 5.36; Inhibitory effect, Fungal pneumonia (pneumonia fungi): 63.07 ± 3.02; Inhibitory effect, Pneumonia caused by pulmonary infections (pulmonary infections): 65.87 ± 3.19; Inhibitory effect, Pneumonia caused by pulmonary infections (pulmonary infections; [6]): inhibitory effect

B2: PRCWRGEGGGGIVRRADRAAVPGGGGRGDAEAAAKEAAAKEAAAKEAAAKKSDKPGGGGTSLDASIIWAMMQNGGGGLSKL (protein)
chain: PRCWRGEGGGGIVRRADRAAVPGGGGRGDAEAAAKEAAAKEAAAKEAAAKKSDKPGGGGTSLDASIIWAMMQNGGGGLSKL
notes: Recombinant fused polypeptide X-linker2-Y expressed in 293 cells
**Q.** What does the source list for B2?
**A.** Survival rate (%) [1]: 85.7%; Survival rate (%) ([1]; listed as fused polypeptide 3): equivalent to that of the positive drug group; hydroxyproline (HYP) content in lung tissue [1]: can lower the hydroxyproline content; content of TGF-β1 in serum, difference from the model group ([1]; FIG. 2, listed as fused polypeptide 3): highly significantly different from the model group (**P<0.01); content of TGF-β1 in serum, difference from the model group ([1]; FIG. 2, listed as recombinant fused polypeptide III): can lower the TGF-β1 content; content of HYP in liver tissue, difference from the model group ([2]; FIG. 3, listed as Recombinant fused polypeptide 3): highly significantly different from the model group (***P<0.001); content of HYP in liver tissue, difference from the model group ([2]; FIG. 3, listed as recombinant fused polypeptide III): can lower the HYP content; content of TGF-β1 in serum, difference from the model group ([3]; FIG. 4, listed as recombinant fused polypeptide 3, 6 mg/kg): highly significantly different from the model group (**P<0.01); content of TGF-β1 in serum, difference from the model group ([3]; FIG. 4, listed as recombinant fused polypeptide III, 6 mg/kg): can lower the TGF-β1 content; content of TGF-β1 in serum, difference from the model group ([4]; listed as recombinant fused polypeptide 3): significantly different from the model group (**P<0.01); content of TGF-β1 in serum, difference from the model group [4, 7]: can lower the TGF-β1 content; content of HYP in skin tissue, difference from the model group ([5]; listed as recombinant fused polypeptide 3, 10 mg/kg): highly significantly different from the model group (**P<0.01); content of HYP in skin tissue, difference from the model group ([5]; listed as recombinant fused polypeptide III, 10 mg/kg): can lower the hydroxyproline content; Inhibitory effect, Bacterial pneumonia (Streptococcus pneumoniae): 48.79 ± 7.26; Inhibitory effect, Viral pneumonia (adenovirus): 69.54 ± 7.49; Inhibitory effect, Mycoplasma pneumonia (Mycoplasma pneumoniae): 45.53 ± 4.33; Inhibitory effect, Chlamydia pneumonia (Chlamydia pneumoniae): 55.78 ± 4.32; Inhibitory effect, Protozoal pneumonia (protozoa): 68.29 ± 4.70; Inhibitory effect, Fungal pneumonia (pneumonia fungi): 65.98 ± 3.64; Inhibitory effect, Pneumonia caused by pulmonary infections (pulmonary infections): 58.81 ± 4.10; Inhibitory effect, Pneumonia caused by pulmonary infections (pulmonary infections; [7]): inhibitory effect
